Each block holds one binder with its values, some of them ahead of it.
Experiments:
4H3381-bH = target: T1, 4H3381-bH; test: two-hybrid library CCNG1;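 also: natural log of median RNA to DNA barcode read ratio; higher means stronger binding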
T1 chain: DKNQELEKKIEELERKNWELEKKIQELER

4H3041-bA = target: T2, 4H3041-bA; test: two-hybrid library CCNG1;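 also: natural log of median RNA to DNA barcode read ratio; higher means stronger binding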
T2 chain: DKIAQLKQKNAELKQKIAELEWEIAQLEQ

4H3497-bA = target: T3, 4H3497-bA; test: two-hybrid library CCNG1;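 also: natural log of median RNA to DNA barcode read ratio; higher means stronger binding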
T3 chain: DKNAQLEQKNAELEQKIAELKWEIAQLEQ

P11A = target: T4, P11A; test: two-hybrid library CCNG1;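 also: natural log of median RNA to DNA barcode read ratio; higher means stronger binding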
T4 chain: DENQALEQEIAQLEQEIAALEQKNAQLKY

4H730-bA = target: T5, 4H730-bA; test: two-hybrid library CCNG1;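 also: natural log of median RNA to DNA barcode read ratio; higher means stronger binding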
T5 chain: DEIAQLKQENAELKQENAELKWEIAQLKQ

4H796-bA = target: T6, 4H796-bA; test: two-hybrid library CCNG1;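 also: natural log of median RNA to DNA barcode read ratio; higher means stronger binding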
T6 chain: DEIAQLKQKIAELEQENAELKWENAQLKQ

4H349-bA = target: T7, 4H349-bA; test: two-hybrid library CCNG1
T7 chain: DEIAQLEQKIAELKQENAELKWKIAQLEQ

4H2931-bA = target: T8, 4H2931-bA; test: two-hybrid library CCNG1
T8 chain: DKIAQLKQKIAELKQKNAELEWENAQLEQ

4H56-bA = target: T9, 4H56-bA; test: two-hybrid library CCNG1
T9 chain: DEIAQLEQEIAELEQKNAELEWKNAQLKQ

4H3297-bA = target: T10, 4H3297-bA; test: two-hybrid library CCNG1
T10 chain: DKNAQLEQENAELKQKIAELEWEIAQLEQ

4H3381-bA = target: T11, 4H3381-bA; test: two-hybrid library CCNG1
T11 chain: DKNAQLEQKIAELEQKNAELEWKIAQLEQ

4H932-bA = target: T12, 4H932-bA; test: two-hybrid library CCNG1
T12 chain: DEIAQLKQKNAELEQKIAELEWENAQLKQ

4H3364-bA = target: T13, 4H3364-bA; test: two-hybrid library CCNG1
T13 chain: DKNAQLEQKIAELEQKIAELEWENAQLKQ

4H949-bA = target: T14, 4H949-bA; test: two-hybrid library CCNG1
T14 chain: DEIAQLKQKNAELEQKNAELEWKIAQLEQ

P8mS = target: T15, P8mS; test: two-hybrid library CCNG1
T15 chain: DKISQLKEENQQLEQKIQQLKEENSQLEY

P7mS = target: T16, P7mS; test: two-hybrid library CCNG1
T16 chain: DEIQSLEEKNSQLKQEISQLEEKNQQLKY

P3mS = target: T17, P3mS; test: two-hybrid library CCNG1
T17 chain: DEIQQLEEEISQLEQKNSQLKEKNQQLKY

P5mS = target: T18, P5mS; test: two-hybrid library CCNG1
T18 chain: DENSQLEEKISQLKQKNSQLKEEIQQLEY

P9mS = target: T19, P9mS; test: two-hybrid library CCNG1
T19 chain: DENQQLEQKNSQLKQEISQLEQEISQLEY

P6mS = target: T20, P6mS; test: two-hybrid library CCNG1
T20 chain: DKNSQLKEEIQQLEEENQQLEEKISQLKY

O4 = target: T21, O4; test: two-hybrid library CC0; details: mean of both orientations
T21 chain: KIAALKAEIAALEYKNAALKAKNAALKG

O8 = target: T22, O8; test: two-hybrid library CC0; details: mean of both orientations
T22 chain: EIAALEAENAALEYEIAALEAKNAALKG

O5 = target: T23, O5; test: two-hybrid library CC0; details: mean of both orientations
T23 chain: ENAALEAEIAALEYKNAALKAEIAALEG

O15 = target: T24, O15; test: two-hybrid library CC0; details: mean of both orientations
T24 chain: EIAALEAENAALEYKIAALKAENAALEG

O14 = target: T25, O14; test: two-hybrid library CC0; details: mean of both orientations
T25 chain: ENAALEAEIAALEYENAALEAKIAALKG

O6 = target: T26, O6; test: two-hybrid library CC0; details: mean of both orientations
T26 chain: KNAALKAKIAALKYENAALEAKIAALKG

O12 = target: T27, O12; test: two-hybrid library CC0; details: mean of both orientations
T27 chain: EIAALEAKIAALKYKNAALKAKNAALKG

O3 = target: T28, O3; test: two-hybrid library CC0; details: mean of both orientations
T28 chain: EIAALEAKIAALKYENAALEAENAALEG

O16 = target: T29, O16; test: two-hybrid library CC0; details: mean of both orientations
T29 chain: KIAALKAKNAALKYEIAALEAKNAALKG

O13 = target: T30, O13; test: two-hybrid library CC0; details: mean of both orientations
T30 chain: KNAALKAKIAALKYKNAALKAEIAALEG

O2 = target: T31, O2; test: two-hybrid library CC0; details: mean of both orientations
T31 chain: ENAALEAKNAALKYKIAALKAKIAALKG

O7 = target: T32, O7; test: two-hybrid library CC0; details: mean of both orientations
T32 chain: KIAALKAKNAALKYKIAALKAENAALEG

O9 = target: T33, O9; test: two-hybrid library CC0; details: mean of both orientations
T33 chain: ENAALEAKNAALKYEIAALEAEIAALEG

- interaction score (4H3381-bH): -0.208
- interaction score (4H3041-bA): -0.32
- interaction score (4H3497-bA): -1.04
- interaction score (P11A): 1.31
- interaction score (4H730-bA): -1.14
- interaction score (4H796-bA): -0.693
- interaction score (4H349-bA): -1.08
- interaction score (4H2931-bA): -0.604
- interaction score (4H56-bA): 0.684
- interaction score (4H3297-bA): -0.644
- interaction score (4H3381-bA): -1.36
- interaction score (4H932-bA): -1.36
- interaction score (4H3364-bA): -1.11
- interaction score (4H949-bA): -1.37
Binder: DKIAQLKQKIAELKQKNAELEWENAQLEQ [4H2931-bA]

- interaction score (P8mS): -1.66
- interaction score (P7mS): -1.59
- interaction score (P3mS): -1.02
- interaction score (P5mS): -0.969
- interaction score (P9mS): -0.496
- interaction score (P6mS): -0.88
Binder: DEIQQLEEEISQLEQKNSQLKEKNQQLKY [P3mS]

Binder: EIAALEAKIAALKYKNAALKAKNAALKG [O12]
- interaction score (O4): -2.22
- interaction score (O8): -2.29
- interaction score (O5): -2.71
- interaction score (O15): -2.78
- interaction score (O14): -2.03
- interaction score (O6): -2.7
- interaction score (O12): -2.79
- interaction score (O3): 0.0458
- interaction score (O16): -2.78
- interaction score (O13): -2.79
- interaction score (O2): -2.79
- interaction score (O7): -2.84
- interaction score (O9): -2.71

From PMC10397247
